Results as given in the supplement of paper PMC10567573.

B1: STK38L (parent)
chain: FLPGGDMMTLLMKKDTLTEEETQF
B2: KLHDC10 (parent)
chain: FGGTGIPFGESNGNGVHVCNVKYK

Variants of: B1
Assay: protein stability index of a GFP-peptide fusion (GPS, HEK-293T) (PSI 1-6); higher = more stable
Conditions: c terminus: a fixed tail appended
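Note: lentivirally expressed fusions sorted by FACS into six bins by GFP to DsRed ratio, PSI derived from sequencing read proportions per bin multiplied by bin number.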

Protein stability index, by site and new letter:
P3: Y 1.68 | C 2.17 | T 2.23 | V 2.08 | K 2.91 | E 2.32 | A 1.66 | L 1.86
D6: A 1.7 | V 2.33 | F 1.96 | P 1.87 | S 2.07
K13: C 1.67 | E 3.03 | R 2.21 | H 2.37 | N 2.49 | S 2.56 | L 2.05 | I 1.87
E19: L 1.62 | R 1.78 | T 1.51 | F 1.87 | S 2.61 | Q 2.12 | C 1.73 | P 2.11
M7: N 3.05 | S 3.9 | E 4.77 | H 3.72 | G 3.16 | Q 3.65 | L 2.43 | K 3.55
F24: D 2.97
M8: S 4.02 | Q 3.35 | I 2.22 | T 4.3 | A 3.75
T22: M 1.97 | D 2.12 | W 2.4 | G 2.08 | R 2.37 | V 2.23 | S 2.37
F1: L 3.71 | K 4.54 | C 4.39 | G 4.51 | M 4.39 | Y 2.33 | Q 4.79 | D 5.25 | T 4.68 | W 3.49
D15: K 1.66 | L 2.56 | T 1.86 | P 1.83 | F 1.94 | E 3.01
M12: P 3.5 | Y 2.84 | T 3.49 | V 3.36 | L 2.35 | C 3.16
L17: F 1.96 | A 2.95 | P 2.46 | D 3.2 | Q 1.98 | E 3.35
G4: V 3.39 | A 2.78 | C 3.09 | N 2.76 | F 2.41 | T 3.34 | R 3.26 | L 2.42 | Q 3.36
T9: Y 2 | E 3.2 | R 1.69 | Q 2.69 | V 1.81
T16: P 3.02 | W 1.96 | N 2.51 | I 2.36 | H 2.48 | V 2.33 | D 2.58
K14: H 2.38 | T 2.27 | S 2.69 | E 2.88 | P 2.46 | D 2.92 | I 1.96 | R 1.96
L10: P 3.9 | C 3.45 | D 4.67 | F 2.75 | R 3.32 | A 3.73
T18: Q 2.34 | G 2.01 | N 2.24 | W 2.17 | S 2.83
G5: H 2.75 | M 3.13 | F 2.84 | K 4.21 | Y 2.63 | L 3.01
Q23: V 2.25 | H 2.27 | R 3.09 | S 2.91 | A 2.05 | M 2.4
E21: R 2.21 | K 2.16 | D 2.07 | H 1.81 | G 2.89 | L 1.56 | I 2 | T 1.74
L2: E 4.84 | I 2.07 | Y 3.68
L11: T 3.07 | D 4.19 | A 3.29 | E 4.25 | W 1.56 | C 2.63 | Q 3.89 | M 2.56
E20: M 1.89 | W 1.66 | Q 1.76 | K 1.75 | R 1.95 | V 1.79 | S 1.68

Variants of: B2
Assay: as above
Conditions: c terminus: a fixed tail appended

Protein stability index: each site, then its substitutions
I6: M 2.07 | L 2.39 | G 1.96 | E 3.02 | P 1.94 | V 2.16 | R 1.72 | S 1.88 | T 1.84 | D 3.29 | C 1.87 | K 2.2 | A 2.1 | W 2.27 | H 2.08 | F 2.3 | N 2.07 | Q 2.27
G5: E 3.42 | L 1.89 | W 2.69 | M 2.47 | A 2.07 | C 1.71 | H 1.92 | Q 2.42 | K 1.52 | T 2.18 | D 2.95 | P 1.86 | F 1.92 | R 2 | Y 1.34 | N 2.87 | S 2.39 | V 1.9 | I 3.13
G3: C 3.1 | T 2.81 | D 2.38 | S 2.61 | F 2.66 | P 2.78 | M 2.29 | L 2.63 | Q 2.88 | E 3.3 | Y 1.95 | I 2.13 | W 1.42 | R 2.77 | N 2.35 | A 2.52 | K 2.32 | V 2.98 | H 2.54
T4: M 1.65 | G 2.03 | E 2.68 | H 1.9 | A 2.02 | S 1.82 | R 1.93 | D 2.52 | W 2.52 | C 1.94 | V 2.5 | I 3.13 | Q 1.6 | F 2.08 | L 1.82 | K 1.72 | P 2.91 | Y 1.68 | N 1.98
F1: R 3.54 | A 4.18 | N 4.34 | D 4.58 | C 3.03 | E 3.67 | P 3.9 | T 3.98 | L 4.04 | H 3.93 | V 3.79 | I 3.5 | G 4.3 | Y 2.23 | M 4.04 | Q 4.24 | S 4.25 | W 2.73 | K 3.71
P7: G 2.23 | L 3.6 | K 2.01 | Q 2.06 | E 2.44 | V 2.92 | S 2.14 | T 2.33 | I 1.73 | C 1.5 | H 2.13 | R 2.07 | N 2.4 | F 3.68 | D 2.92 | M 1.29 | A 1.41 | Y 2.5
E10: C 1.51 | K 1.46 | I 2.39 | D 1.73 | L 2.43 | A 2.94 | M 2.26 | G 1.68 | F 1.7 | H 1.99
G9: Q 1.88 | W 2.89 | V 2.57 | R 1.76 | I 2.16 | N 2.29 | D 3.04 | E 3.16 | P 2.44 | S 1.74 | A 1.85 | K 1.79 | T 1.66 | M 1.18 | Y 2.15 | H 2.72 | C 1.41 | L 1.39
G2: P 1.83 | V 1.92 | N 2.16 | S 2.11 | E 3.9 | A 2.2 | H 2.58 | Y 2.55 | T 1.97 | F 2.72 | K 3.55 | L 2.19 | M 2.7 | R 3.08 | I 2.14 | Q 2.02 | W 2.2 | D 3.46 | C 2.41
F8: N 3.61 | Y 2.16 | L 3.04 | D 4.16 | A 3.78 | T 3.22 | P 4.12 | K 3.84 | R 3.37 | C 3.02 | V 2.83 | I 2.5 | E 4.3 | Q 3.75 | G 3.58 | H 2.65 | M 3.02 | W 1.98 | S 3.62
